Measured values reported in patent US20190134153A1, “IMMUNOMODULATORY EFFECT OF INHALED KINASE INHIBITOR PEPTIDES IN LUNG” (MOERAE MATRIX, INC., priority 2017, published 2019).

Key:
Experiment in all cases: Kinase Profiling Assay
Format in all cases: biochemical
Conditions in all cases: 100 μM
STK33(h) = STK33(h) (Homo sapiens, UniProt Q9BYT3)
BrSK2(h) = biological target: T1, BrSK2(h) (Homo sapiens, UniProt Q8IWQ3)
T1 sequence (Q8IWQ3 1-736): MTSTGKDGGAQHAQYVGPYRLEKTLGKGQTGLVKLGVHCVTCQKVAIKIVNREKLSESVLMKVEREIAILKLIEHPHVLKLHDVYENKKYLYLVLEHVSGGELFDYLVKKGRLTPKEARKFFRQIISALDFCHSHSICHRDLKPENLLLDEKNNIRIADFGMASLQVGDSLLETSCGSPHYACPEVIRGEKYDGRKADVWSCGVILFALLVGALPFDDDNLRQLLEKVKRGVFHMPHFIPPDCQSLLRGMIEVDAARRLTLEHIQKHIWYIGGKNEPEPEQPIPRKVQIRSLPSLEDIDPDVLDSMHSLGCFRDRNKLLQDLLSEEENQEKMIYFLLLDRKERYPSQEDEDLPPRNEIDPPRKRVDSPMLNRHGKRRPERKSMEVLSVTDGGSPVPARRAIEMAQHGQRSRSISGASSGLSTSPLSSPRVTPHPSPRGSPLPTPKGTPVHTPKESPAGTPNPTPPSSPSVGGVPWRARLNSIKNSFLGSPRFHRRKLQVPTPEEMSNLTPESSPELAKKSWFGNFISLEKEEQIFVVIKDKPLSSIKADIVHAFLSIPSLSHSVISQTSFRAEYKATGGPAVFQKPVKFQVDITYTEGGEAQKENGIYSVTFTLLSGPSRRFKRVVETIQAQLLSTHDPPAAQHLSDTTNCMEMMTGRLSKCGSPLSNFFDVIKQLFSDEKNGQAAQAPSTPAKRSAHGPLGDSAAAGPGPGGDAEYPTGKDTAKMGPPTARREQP

Rsk4(h) = Rsk4(h) (Homo sapiens, UniProt Q9UK32)
Chain of Rsk4(h) (Q9UK32 whole entry): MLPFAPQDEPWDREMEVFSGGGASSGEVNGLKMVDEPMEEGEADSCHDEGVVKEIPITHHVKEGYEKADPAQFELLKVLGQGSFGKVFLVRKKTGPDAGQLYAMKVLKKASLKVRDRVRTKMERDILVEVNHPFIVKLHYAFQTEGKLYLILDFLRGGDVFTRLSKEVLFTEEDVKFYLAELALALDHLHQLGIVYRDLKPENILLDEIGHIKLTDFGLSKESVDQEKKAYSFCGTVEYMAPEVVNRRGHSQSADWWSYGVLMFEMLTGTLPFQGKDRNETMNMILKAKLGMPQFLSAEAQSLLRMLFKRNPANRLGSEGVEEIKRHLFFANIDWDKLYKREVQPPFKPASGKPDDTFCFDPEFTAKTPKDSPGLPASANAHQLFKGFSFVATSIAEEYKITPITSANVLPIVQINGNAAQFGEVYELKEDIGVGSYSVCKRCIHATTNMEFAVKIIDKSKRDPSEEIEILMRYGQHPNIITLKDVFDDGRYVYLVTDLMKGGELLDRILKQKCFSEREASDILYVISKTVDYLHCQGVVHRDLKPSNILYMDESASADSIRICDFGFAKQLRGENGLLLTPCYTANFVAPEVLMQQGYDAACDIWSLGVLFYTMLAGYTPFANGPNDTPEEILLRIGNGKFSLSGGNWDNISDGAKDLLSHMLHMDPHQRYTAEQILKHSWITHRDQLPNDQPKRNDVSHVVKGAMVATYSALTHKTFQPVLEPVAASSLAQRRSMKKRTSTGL

NEK2(h) = biological target: T2, NEK2(h) (Homo sapiens, UniProt P51955)
T2 sequence (P51955 1-445): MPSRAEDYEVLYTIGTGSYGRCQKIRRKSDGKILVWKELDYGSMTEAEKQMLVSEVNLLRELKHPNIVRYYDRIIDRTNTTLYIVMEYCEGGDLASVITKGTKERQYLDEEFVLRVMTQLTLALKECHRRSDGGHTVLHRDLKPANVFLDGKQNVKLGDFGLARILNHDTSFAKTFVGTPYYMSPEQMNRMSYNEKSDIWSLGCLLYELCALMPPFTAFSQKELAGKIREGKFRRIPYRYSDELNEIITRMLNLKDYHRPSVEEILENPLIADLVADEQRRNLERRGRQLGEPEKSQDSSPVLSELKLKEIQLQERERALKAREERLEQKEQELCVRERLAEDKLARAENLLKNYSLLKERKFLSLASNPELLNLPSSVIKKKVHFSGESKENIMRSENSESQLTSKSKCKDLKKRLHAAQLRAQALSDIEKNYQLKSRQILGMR

IR(h) = IR(h) (Homo sapiens, UniProt P06213)
LOK(h) = LOK(h) (Homo sapiens, UniProt O94804)
Chain of LOK(h) (O94804 whole entry): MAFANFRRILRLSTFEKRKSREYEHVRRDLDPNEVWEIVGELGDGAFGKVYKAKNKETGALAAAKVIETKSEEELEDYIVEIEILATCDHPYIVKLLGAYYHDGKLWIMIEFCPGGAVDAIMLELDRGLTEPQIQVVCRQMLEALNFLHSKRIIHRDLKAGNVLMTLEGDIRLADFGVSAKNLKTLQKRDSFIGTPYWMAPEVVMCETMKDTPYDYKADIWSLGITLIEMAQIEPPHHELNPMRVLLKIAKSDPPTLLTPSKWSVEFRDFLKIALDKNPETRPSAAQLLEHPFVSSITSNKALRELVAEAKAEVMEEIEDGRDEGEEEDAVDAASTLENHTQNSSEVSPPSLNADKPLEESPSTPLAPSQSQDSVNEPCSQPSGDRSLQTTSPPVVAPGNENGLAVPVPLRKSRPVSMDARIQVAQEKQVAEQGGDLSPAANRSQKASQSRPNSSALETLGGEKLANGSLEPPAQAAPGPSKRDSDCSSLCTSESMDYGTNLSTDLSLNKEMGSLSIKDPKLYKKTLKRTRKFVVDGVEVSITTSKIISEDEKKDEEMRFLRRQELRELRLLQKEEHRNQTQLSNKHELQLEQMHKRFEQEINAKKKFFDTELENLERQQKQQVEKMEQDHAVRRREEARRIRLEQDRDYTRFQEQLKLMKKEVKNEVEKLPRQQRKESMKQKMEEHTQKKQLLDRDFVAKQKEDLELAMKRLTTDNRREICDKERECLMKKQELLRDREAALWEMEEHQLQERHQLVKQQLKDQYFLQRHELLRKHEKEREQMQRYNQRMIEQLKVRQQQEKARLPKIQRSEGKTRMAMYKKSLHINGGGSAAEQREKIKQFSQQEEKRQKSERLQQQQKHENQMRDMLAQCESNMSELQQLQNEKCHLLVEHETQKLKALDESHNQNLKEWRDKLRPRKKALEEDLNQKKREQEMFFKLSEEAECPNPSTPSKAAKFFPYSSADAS

PASK(h) = PASK(h) (Homo sapiens, UniProt Q96RG2)
Chain of PASK(h) (Q96RG2 whole entry): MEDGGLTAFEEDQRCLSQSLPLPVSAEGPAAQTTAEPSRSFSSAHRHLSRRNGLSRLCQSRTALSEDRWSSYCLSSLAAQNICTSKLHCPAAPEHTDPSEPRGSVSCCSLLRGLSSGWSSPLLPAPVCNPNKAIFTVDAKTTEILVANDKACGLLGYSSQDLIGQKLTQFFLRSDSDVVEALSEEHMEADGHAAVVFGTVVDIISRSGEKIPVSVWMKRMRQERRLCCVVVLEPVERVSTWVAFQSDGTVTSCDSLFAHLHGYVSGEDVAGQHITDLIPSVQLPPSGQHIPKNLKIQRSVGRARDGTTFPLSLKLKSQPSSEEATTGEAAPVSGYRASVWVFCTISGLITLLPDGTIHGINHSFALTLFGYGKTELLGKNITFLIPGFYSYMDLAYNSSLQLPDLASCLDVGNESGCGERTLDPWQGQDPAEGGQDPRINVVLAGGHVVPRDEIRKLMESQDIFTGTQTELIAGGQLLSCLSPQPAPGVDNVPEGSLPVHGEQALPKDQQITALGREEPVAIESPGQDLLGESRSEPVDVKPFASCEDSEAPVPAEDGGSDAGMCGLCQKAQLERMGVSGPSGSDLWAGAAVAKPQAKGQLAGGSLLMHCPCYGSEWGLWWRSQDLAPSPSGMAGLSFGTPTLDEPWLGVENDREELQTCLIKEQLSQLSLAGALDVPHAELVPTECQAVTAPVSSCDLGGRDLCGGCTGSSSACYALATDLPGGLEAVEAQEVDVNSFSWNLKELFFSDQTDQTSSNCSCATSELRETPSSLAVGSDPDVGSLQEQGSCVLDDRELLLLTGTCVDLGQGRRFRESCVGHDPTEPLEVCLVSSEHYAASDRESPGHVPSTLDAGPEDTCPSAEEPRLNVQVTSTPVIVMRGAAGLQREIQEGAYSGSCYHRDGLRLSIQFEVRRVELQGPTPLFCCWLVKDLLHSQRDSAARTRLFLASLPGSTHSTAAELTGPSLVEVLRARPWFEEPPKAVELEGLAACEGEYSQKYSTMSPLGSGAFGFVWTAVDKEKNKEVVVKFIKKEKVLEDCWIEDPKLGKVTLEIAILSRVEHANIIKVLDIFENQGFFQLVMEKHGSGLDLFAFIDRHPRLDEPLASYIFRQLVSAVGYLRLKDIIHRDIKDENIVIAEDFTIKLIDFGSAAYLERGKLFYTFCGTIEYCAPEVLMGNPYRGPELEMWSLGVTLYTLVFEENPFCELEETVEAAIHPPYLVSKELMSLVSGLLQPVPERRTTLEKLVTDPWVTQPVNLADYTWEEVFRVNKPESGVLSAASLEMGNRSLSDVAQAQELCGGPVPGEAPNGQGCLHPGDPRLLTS

Ret(V804M)(h) = Ret(V804M)(h) (Homo sapiens, UniProt P07949, V804M)
mTOR(h) = mTOR(h) (Homo sapiens, UniProt P42345)
Ros(h) = Ros(h) (Homo sapiens, UniProt P08922)
PKCβII(h) = PKCβII(h) (Homo sapiens, UniProt P05771)
CDK9/cyclin T1(h) = CDK9/cyclin T1(h) (Homo sapiens, UniProt P50750)
Chain of CDK9/cyclin T1(h) (P50750 whole entry): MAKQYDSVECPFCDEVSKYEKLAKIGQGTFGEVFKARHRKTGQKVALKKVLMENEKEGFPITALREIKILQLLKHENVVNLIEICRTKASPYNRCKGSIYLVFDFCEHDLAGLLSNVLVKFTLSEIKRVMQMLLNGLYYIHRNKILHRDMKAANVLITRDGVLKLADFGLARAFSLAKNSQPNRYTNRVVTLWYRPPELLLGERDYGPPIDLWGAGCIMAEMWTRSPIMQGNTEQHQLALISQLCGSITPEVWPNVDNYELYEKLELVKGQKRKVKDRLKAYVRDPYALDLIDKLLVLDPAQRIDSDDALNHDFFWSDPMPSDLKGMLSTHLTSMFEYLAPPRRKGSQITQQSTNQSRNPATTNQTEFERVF
Chain of CDK9/cyclin T1(h) (O60563 whole entry partner): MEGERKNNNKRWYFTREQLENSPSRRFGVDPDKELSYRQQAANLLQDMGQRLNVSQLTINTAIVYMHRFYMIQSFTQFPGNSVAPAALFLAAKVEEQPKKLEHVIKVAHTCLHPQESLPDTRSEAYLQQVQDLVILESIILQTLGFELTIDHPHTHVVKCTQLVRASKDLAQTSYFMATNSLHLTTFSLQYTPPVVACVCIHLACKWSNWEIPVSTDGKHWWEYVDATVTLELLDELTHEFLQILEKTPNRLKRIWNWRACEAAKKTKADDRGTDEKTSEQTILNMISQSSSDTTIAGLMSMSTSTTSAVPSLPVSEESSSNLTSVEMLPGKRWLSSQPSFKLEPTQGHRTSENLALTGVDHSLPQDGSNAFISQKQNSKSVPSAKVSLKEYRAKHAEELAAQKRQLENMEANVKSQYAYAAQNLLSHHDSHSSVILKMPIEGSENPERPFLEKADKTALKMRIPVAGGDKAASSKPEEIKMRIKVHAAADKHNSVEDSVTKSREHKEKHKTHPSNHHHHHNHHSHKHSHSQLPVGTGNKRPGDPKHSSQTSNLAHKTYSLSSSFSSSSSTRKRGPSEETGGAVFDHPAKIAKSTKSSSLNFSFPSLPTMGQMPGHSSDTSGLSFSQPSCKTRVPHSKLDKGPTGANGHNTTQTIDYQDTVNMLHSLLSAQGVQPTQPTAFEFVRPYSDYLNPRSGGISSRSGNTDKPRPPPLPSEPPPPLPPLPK

ZAP-70(h) = biological target: T3, ZAP-70(h) (Homo sapiens, UniProt P43403)
T3 sequence (P43403 1-619): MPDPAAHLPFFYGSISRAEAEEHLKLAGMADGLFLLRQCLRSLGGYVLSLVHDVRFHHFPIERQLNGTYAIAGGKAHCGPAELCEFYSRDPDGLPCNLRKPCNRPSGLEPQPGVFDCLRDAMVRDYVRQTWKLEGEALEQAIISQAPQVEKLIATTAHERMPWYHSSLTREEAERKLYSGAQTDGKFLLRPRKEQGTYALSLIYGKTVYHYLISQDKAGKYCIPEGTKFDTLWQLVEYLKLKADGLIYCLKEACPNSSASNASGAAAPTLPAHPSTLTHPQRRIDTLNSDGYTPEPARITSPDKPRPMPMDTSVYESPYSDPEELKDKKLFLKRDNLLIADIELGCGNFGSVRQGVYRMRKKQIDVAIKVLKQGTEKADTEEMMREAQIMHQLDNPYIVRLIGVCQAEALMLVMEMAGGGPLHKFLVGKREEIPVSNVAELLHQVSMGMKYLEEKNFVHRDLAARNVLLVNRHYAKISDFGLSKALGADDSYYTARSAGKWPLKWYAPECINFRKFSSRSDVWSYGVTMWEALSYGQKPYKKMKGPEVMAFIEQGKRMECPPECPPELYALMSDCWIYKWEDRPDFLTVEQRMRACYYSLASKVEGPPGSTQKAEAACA

Chain of STK33(h) (Q9BYT3 whole entry): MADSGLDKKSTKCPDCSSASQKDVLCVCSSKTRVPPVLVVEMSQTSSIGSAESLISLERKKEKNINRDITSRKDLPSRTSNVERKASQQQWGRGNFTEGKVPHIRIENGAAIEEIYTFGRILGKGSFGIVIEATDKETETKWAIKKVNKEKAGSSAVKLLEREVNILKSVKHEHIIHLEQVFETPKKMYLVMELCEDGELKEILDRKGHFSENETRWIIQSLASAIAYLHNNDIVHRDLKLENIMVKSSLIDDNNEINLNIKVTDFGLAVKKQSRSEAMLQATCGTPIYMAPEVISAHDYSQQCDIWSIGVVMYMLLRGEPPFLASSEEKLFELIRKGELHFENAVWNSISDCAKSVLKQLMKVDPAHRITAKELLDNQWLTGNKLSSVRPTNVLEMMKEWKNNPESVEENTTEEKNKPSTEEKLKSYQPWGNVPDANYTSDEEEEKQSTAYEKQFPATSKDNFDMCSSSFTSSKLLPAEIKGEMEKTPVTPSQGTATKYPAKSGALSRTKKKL

| Sequence | % activity (STK33(h)) | % activity (BrSK2(h)) | % activity (Rsk4(h)) | % activity (NEK2(h)) | % activity (IR(h)) | % activity (LOK(h)) | % activity (PASK(h)) | % activity (Ret(V804M)(h)) | % activity (mTOR(h)) | % activity (Ros(h)) | % activity (PKCβII(h)) | % activity (CDK9/cyclin T1(h)) | % activity (ZAP-70(h)) |
| --- | --- | --- | --- | --- | --- | --- | --- | --- | --- | --- | --- | --- | --- |
| FAKLAARLYRKALARQLGVAA [MMI-0300] | 45% | 83% | 90% | 78% | 96% | 37% | 29% | 95% | 91% | 95% | 82% | 91% | 75% |
| KAFAKLAARLYRKALARQLGVAA [MMI-0400] | 52% | 86% | 91% | 61% | 85% | 18% | 28% | 87% | 93% | 99% | 75% | 235% | 33% |
| YARAAARQARAKALNRQLGVA [MMI-0200] | 98% | – | 125% | 97% | 90% | 67% | 60% | – | 110% | 86% | 100% | – | 58% |
| HRRIKAWLKKIKALARQLGVAA [MMI-0500] | 16% | 84% | 29% | 0% | 95% | 7% | 9% | 36% | 135% | 150% | 3% | 6% | 1% |
